Source: US20230192860A1 (Bristol-Myers Squibb, published 2023)

Key:
hVISTA-ECD 6-His tag [1] = target: T1, hVISTA-ECD 6-His tag (human, UniProt Q9H7M9 33-193); test: SPR 37 C, Ab on Protein A, pH 7.4
T1 construct: also called monovalent hVISTA-ECD; human VISTA

hVISTA-ECD 6-His tag [2] = target: T1, hVISTA-ECD 6-His tag; test: SPR 37 C, Ab on Protein A, pH 6.0
[3] = target: T2, monovalent hVISTA-ECD with polyhistidine tail (SEQ ID NO: 325) (human, UniProt Q9H7M9 33-193); test: SPR, mAb captured on Protein A chip, hVISTA injected, PBST pH 6.0, 37 C
T2 construct: also called hVISTA-ECD 6-His tag; human VISTA

[4] = target: T2, monovalent hVISTA-ECD with …; test: SPR, mAb captured on Protein A chip, hVISTA injected, PBST pH 7.4, 37 C

T2 sequence (Q9H7M9 other isoform, or with tags, fused parts or gaps limits assumed): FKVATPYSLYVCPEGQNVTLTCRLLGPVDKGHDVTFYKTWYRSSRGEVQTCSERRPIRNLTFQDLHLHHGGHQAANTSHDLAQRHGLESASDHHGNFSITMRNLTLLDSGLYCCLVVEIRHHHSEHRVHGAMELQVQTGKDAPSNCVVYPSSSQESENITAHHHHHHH
T1 sequence (Q9H7M9 other isoform, or with tags, fused parts or gaps limits assumed): as above

| Kd (hVISTA-ECD 6-His tag [1]) [nM] | koff (hVISTA-ECD 6-His tag [1]) [s⁻¹] | kon (hVISTA-ECD 6-His tag [1]) [M⁻¹ s⁻¹] | Kd (hVISTA-ECD 6-His tag [2]) [nM] | koff (hVISTA-ECD 6-His tag [2]) [s⁻¹] | kon (hVISTA-ECD 6-His tag [2]) [M⁻¹ s⁻¹] | Kd [3] [nM] | koff [3] [s⁻¹] | kon [3] [M⁻¹ s⁻¹] | Kd [4] [nM] | koff [4] [s⁻¹] | kon [4] [M⁻¹ s⁻¹] | Binder |
| --- | --- | --- | --- | --- | --- | --- | --- | --- | --- | --- | --- | --- |
| 5200 | 0.061 | 12000 | 36 | 0.0077 | 210000 | – | – | – | – | – | – | P1-077855 (P1-068744 E31S E59Y) (antibody, V domains shown) VH: QVQLVESGGGVVQPGRSLRLSCAASGFTFSSYAMHWVRQAPGKGLEWVAHIWYDGSNKYYADSVKGRFTISRDNSKNTLYLQMNSLRAEDTAVYYCARDSGFYESYYFDEWGQGTLVTVSS VL: EIVLTQSPATLSLSPGERATLSCRASQSVSSSYLAWYQQKPGQAPRLLIYDASNRATGIPARFSGSGSGTDFTLTISSLEPEDFATYYCQQYNSYPYTFGQGTKLEIK |
| – | – | – | – | – | – | 1.9 | 0.0016 | 830000 | 6.4 | 0.0022 | 340000 | P1-061015 (antibody, V domains shown, captured on a Protein A chip; also called parental antibody) VH: not shown VL: EIVLTQSPATLSLSPGERATLSCRASQSVSSSYLAWYQQKPGQAPRLLIYDASNRATGIPARFSGSGSGTDFTLTISSLEPEDFATYYCQQYNSYPYTFGQGTKLEIK |
| 9.5 | 0.0044 | 460000 | 2.3 | 0.0032 | 1.4e+06 | – | – | – | – | – | – | P1-077859 (P1-068744 H50I E100S) (antibody, V domains shown) VH: QVQLVESGGGVVQPGRSLRLSCAASGFTFSEYAMHWVRQAPGKGLEWVAIIWYDGSNKYEADSVKGRFTISRDNSKNTLYLQMNSLRAEDTAVYYCARDSGFYSSYYFDEWGQGTLVTVSS VL: EIVLTQSPATLSLSPGERATLSCRASQSVSSSYLAWYQQKPGQAPRLLIYDASNRATGIPARFSGSGSGTDFTLTISSLEPEDFATYYCQQYNSYPYTFGQGTKLEIK |
| 1100 | 0.055 | 63000 | 130 | 0.017 | 140000 | – | – | – | – | – | – | P1-077863 (P1-068744 E59Y E102Y) (antibody, V domains shown) VH: QVQLVESGGGVVQPGRSLRLSCAASGFTFSEYAMHWVRQAPGKGLEWVAHIWYDGSNKYYADSVKGRFTISRDNSKNTLYLQMNSLRAEDTAVYYCARDSGFYESYYFDYWGQGTLVTVSS VL: EIVLTQSPATLSLSPGERATLSCRASQSVSSSYLAWYQQKPGQAPRLLIYDASNRATGIPARFSGSGSGTDFTLTISSLEPEDFATYYCQQYNSYPYTFGQGTKLEIK |
| – | – | – | – | – | – | 15 | 0.0026 | 170000 | 980 | 0.027 | 28000 | P1-077869 (P1-068748 D57K) (antibody, V domains shown, Reversion mutant of P1-068748 (Kabat names); captured on a Protein A chip) VH: QVQLVESGGGVVQPGRSLRLSCAASGFTFSHHAMHWVRQAPGKGLEWVAIIWYDGSNKDYADSVKGRFTISRDNSKNTLYLQMNSLRAEDTAVYYCARDSGFYDSYYFDYWGQGTLVTVSS VL: EIVLTQSPATLSLSPGERATLSCRASQSVSSSYLAWYQQKPGQAPRLLIYDASNRATGIPARFSGSGSGTDFTLTISSLEPEDFATYYCQQYNSYPYTFGQGTKLEIK |
| – | – | – | – | – | – | 5.2 | 0.0028 | 540000 | 410 | 0.028 | 69000 | P1-077865 (P1-068748 H31S) (antibody, V domains shown, Reversion mutant of P1-068748 (Kabat names); captured on a Protein A chip) VH: QVQLVESGGGVVQPGRSLRLSCAASGFTFSSHAMHWVRQAPGKGLEWVAIIWYDGSNDDYADSVKGRFTISRDNSKNTLYLQMNSLRAEDTAVYYCARDSGFYDSYYFDYWGQGTLVTVSS VL: EIVLTQSPATLSLSPGERATLSCRASQSVSSSYLAWYQQKPGQAPRLLIYDASNRATGIPARFSGSGSGTDFTLTISSLEPEDFATYYCQQYNSYPYTFGQGTKLEIK |
| – | – | – | – | – | – | 2.2 | 0.0019 | 840000 | 270 | 0.024 | 88000 | P1-077877 (P1-068748 H32Y D57K) (antibody, V domains shown, Reversion mutant of P1-068748 (Kabat names); captured on a Protein A chip) VH: QVQLVESGGGVVQPGRSLRLSCAASGFTFSHYAMHWVRQAPGKGLEWVAIIWYDGSNKDYADSVKGRFTISRDNSKNTLYLQMNSLRAEDTAVYYCARDSGFYDSYYFDYWGQGTLVTVSS VL: EIVLTQSPATLSLSPGERATLSCRASQSVSSSYLAWYQQKPGQAPRLLIYDASNRATGIPARFSGSGSGTDFTLTISSLEPEDFATYYCQQYNSYPYTFGQGTKLEIK |
| – | – | – | – | – | – | 11 | 0.0035 | 310000 | 600 | 0.032 | 54000 | P1-068748 (antibody, V domains shown, captured on a Protein A chip) VH: QVQLVESGGGVVQPGRSLRLSCAASGFTFSHHAMHWVRQAPGKGLEWVAIIWYDGSNDDYADSVKGRFTISRDNSKNTLYLQMNSLRAEDTAVYYCARDSGFYDSYYFDYWGQGTLVTVSS VL: EIVLTQSPATLSLSPGERATLSCRASQSVSSSYLAWYQQKPGQAPRLLIYDASNRATGIPARFSGSGSGTDFTLTISSLEPEDFATYYCQQYNSYPYTFGQGTKLEIK |
| 26 | 0.0027 | 100000 | 2.6 | 0.0023 | 870000 | – | – | – | – | – | – | P1-077861 (P1-068744 H50I E102Y) (antibody, V domains shown) VH: QVQLVESGGGVVQPGRSLRLSCAASGFTFSEYAMHWVRQAPGKGLEWVAIIWYDGSNKYEADSVKGRFTISRDNSKNTLYLQMNSLRAEDTAVYYCARDSGFYESYYFDYWGQGTLVTVSS VL: EIVLTQSPATLSLSPGERATLSCRASQSVSSSYLAWYQQKPGQAPRLLIYDASNRATGIPARFSGSGSGTDFTLTISSLEPEDFATYYCQQYNSYPYTFGQGTKLEIK |
| – | – | – | – | – | – | 0.71 | 0.0012 | 1.8e+06 | 3.6 | 0.003 | 850000 | P1-077873 (P1-068748 D100S) (antibody, V domains shown, Reversion mutant of P1-068748 (Kabat names); captured on a Protein A chip) VH: QVQLVESGGGVVQPGRSLRLSCAASGFTFSHHAMHWVRQAPGKGLEWVAIIWYDGSNDDYADSVKGRFTISRDNSKNTLYLQMNSLRAEDTAVYYCARDSGFYSSYYFDYWGQGTLVTVSS VL: EIVLTQSPATLSLSPGERATLSCRASQSVSSSYLAWYQQKPGQAPRLLIYDASNRATGIPARFSGSGSGTDFTLTISSLEPEDFATYYCQQYNSYPYTFGQGTKLEIK |
| – | – | – | – | – | – | 0.94 | 0.0018 | 1.9e+06 | 130 | 0.021 | 160000 | P1-077875 (P1-068748 H31S H32Y) (antibody, V domains shown, Reversion mutant of P1-068748 (Kabat names); captured on a Protein A chip) VH: QVQLVESGGGVVQPGRSLRLSCAASGFTFSSYAMHWVRQAPGKGLEWVAIIWYDGSNDDYADSVKGRFTISRDNSKNTLYLQMNSLRAEDTAVYYCARDSGFYDSYYFDYWGQGTLVTVSS VL: EIVLTQSPATLSLSPGERATLSCRASQSVSSSYLAWYQQKPGQAPRLLIYDASNRATGIPARFSGSGSGTDFTLTISSLEPEDFATYYCQQYNSYPYTFGQGTKLEIK |
| – | – | – | – | – | – | 2.2 | 0.0029 | 1.3e+06 | 230 | 0.026 | 120000 | P1-077867 (P1-068748 H32Y) (antibody, V domains shown, Reversion mutant of P1-068748 (Kabat names); captured on a Protein A chip) VH: QVQLVESGGGVVQPGRSLRLSCAASGFTFSHYAMHWVRQAPGKGLEWVAIIWYDGSNDDYADSVKGRFTISRDNSKNTLYLQMNSLRAEDTAVYYCARDSGFYDSYYFDYWGQGTLVTVSS VL: EIVLTQSPATLSLSPGERATLSCRASQSVSSSYLAWYQQKPGQAPRLLIYDASNRATGIPARFSGSGSGTDFTLTISSLEPEDFATYYCQQYNSYPYTFGQGTKLEIK |
| 520 | 0.16 | 300000 | 120 | 0.097 | 820000 | – | – | – | – | – | – | P1-077857 (P1-068744 E31S E100S) (antibody, V domains shown) VH: QVQLVESGGGVVQPGRSLRLSCAASGFTFSSYAMHWVRQAPGKGLEWVAHIWYDGSNKYEADSVKGRFTISRDNSKNTLYLQMNSLRAEDTAVYYCARDSGFYSSYYFDEWGQGTLVTVSS VL: EIVLTQSPATLSLSPGERATLSCRASQSVSSSYLAWYQQKPGQAPRLLIYDASNRATGIPARFSGSGSGTDFTLTISSLEPEDFATYYCQQYNSYPYTFGQGTKLEIK |
